# Earlier results in publication PMC3951123.
# How the values were obtained:
# Experiment in all cases: SPR
# [1] = target: Syk linker B peptide SykLB-pYpY (Mus musculus) (UniProt P48025)
# [2] = target: Syk linker B peptide SykLB-YpY (Mus musculus) (UniProt P48025)
# [3] = target: Syk linker B peptide SykLB-pYY (Mus musculus) (UniProt P48025)
substance,measurement,setting,value
Vav1 SH2 (from UniProt P15498),Kd,[1],7.4 µM
same,Kd,[2],71 µM
same,Kd,[3],14.6 µM
